± gives the uncertainty stated by the source.
Assay: self-splicing fitness, log relative to wild type (ln ratio); higher = more splicing; Tetrahymena group I intron in knt gene, E. coli kanamycin selection, DiMSum; sequences stand for … in CUCUCU…GGAGGGAAAAGUUAUCAGGCAUGCACCUGGUAGCUAGUCUUUAAACCAAUAGAUUGCAUCGGUUUAAAAGGCAAGACCGUCAAAUUGCGGGAAAGGGGUCAACAGCCGUUCAGUACCAAGUCUCAGGGGAAACUUUGAGAUGGCCUUGCAAAGGGUAUGGUAAUAAGCUGACGGACAUGGUCCUAACCACGCAGCCAAGUCCUAAGUCAACAGAUCUUCUGUUGAUAUGGAUGCAGUUCACAGACUAAAUGUCGGUCGGGGAAGAUGUAUUCUUCUCAUAAGAUAUAGUCGGACCUCUCCUUAAUGGGAGCUAGCGGAUGAAGUGAUGCAACACUGGAGCCGCUGGGAACUAAUUUGUAUGCGAAAGUAUAUUGAUUAGUUUUGGAGUACUCGUGGUCG
Procedure, shortened: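 Fitness was computed with DiMSum as the error-weighted combination of replicate fold changes, kanamycin versus none, each normalised to wild type. The library randomised all eight intron nucleotides of the P1ex region, with the intron placed in the knt kanamycin-resistance gene on pET-22b(+) in E. coli BL21(DE3). Six replicate transformations were grown overnight at 37°C or 30°C on LB agar with or without 25 μg/mL kanamycin, plus 100 μg/mL carbenicillin, 50 μM IPTG and 0.2% rhamnose. Pooled colonies were amplicon-sequenced on an Illumina HiSeq 2500.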

Sequence	self-splicing fitness (ln) (30 °C)	self-splicing fitness (ln) (37 °C)
AUAUAGCAAUAUUACGCAUG	-1.66 ± 0.12	-0.477 ± 0.14
AUAUAGCAAUAUUACGCCCA	-1.31 ± 0.3	-0.688 ± 0.3
AUAUAGCAAUAUUACGCCCG	-1.67 ± 0.21	-1.56 ± 0.42
AUAUAGCAAUAUUACGCGCC	-1.51 ± 0.33	-1.35 ± 0.41
AUAUAGCAAUAUUACGCUAG	-1.69 ± 0.25	-1.19 ± 0.3
AUAUAGCAAUAUUACGCUCC	-0.958 ± 0.25	-0.476 ± 0.32
AUAUAGCAAUAUUACGCUUC	-2.84 ± 0.38	-2.86 ± 0.43
AUAUAGCAAUAUUACGGAAG	-3.08 ± 0.36	-1.27 ± 0.34
AUAUAGCAAUAUUACGGCGC	-1.38 ± 0.19	-0.869 ± 0.26
AUAUAGCAAUAUUACGUGGC		-2.67 ± 0.31
AUAUAGCAAUAUUACGUUAU	-3.02 ± 0.13	-1.65 ± 0.12
AUCAAGCAAUAUUACGAAAU	-2.09 ± 0.078	-1.04 ± 0.092
AUCAAGCAAUAUUACGAACA	-1.12 ± 0.08	-0.578 ± 0.08
AUCAAGCAAUAUUACGAAUC	-4.76 ± 0.41	-2.78 ± 0.3
AUCAAGCAAUAUUACGACCG	-1.33 ± 0.15	-0.381 ± 0.18
AUCAAGCAAUAUUACGACCU	-0.924 ± 0.11	-0.336 ± 0.1
AUCAAGCAAUAUUACGAUAC	-4.68 ± 0.39	-2.17 ± 0.26
AUCAAGCAAUAUUACGAUCC	-2.34 ± 0.2	-0.539 ± 0.21
AUCAAGCAAUAUUACGCAGG	-2.34 ± 0.2	-1.8 ± 0.2
AUCAAGCAAUAUUACGCCAG	-3.08 ± 0.2	-1.32 ± 0.23
AUCAAGCAAUAUUACGCCCC	-1.45 ± 0.3	0.787 ± 0.27

Sequence	self-splicing fitness (ln) (30 °C)	self-splicing fitness (ln) (37 °C)
AUCAAGCAAUAUUACGCGCC	-1.23 ± 0.14	-0.474 ± 0.17
AUCAAGCAAUAUUACGGAGC	-2.98 ± 0.28	-1.92 ± 0.25
AUCAAGCAAUAUUACGGCGC	-1.01 ± 0.093	0.428 ± 0.14
AUCAAGCAAUAUUACGGGCC	-2.78 ± 0.2	-0.86 ± 0.29
AUCAAGCAAUAUUACGGUAA	-2.12 ± 0.12	-0.319 ± 0.084
AUCAAGCAAUAUUACGGUAG		-2.53 ± 0.39
AUCAAGCAAUAUUACGGUCA	-1.76 ± 0.14	-1.28 ± 0.13
AUCAAGCAAUAUUACGUAUG	-4.19 ± 0.24	-1.56 ± 0.14
AUCAAGCAAUAUUACGUCUC	-2.08 ± 0.087	-1.16 ± 0.11
AUCAAGCAAUAUUACGUGCA	-0.986 ± 0.077	-0.556 ± 0.088
AUCAAGCAAUAUUACGUGCG	-1.03 ± 0.079	0.202 ± 0.099
AUCAAGCAAUAUUACGUUAG	-3.1 ± 0.14	-3.05 ± 0.2
AUCCAGCAAUAUUACGAACA	-0.801 ± 0.087	-0.748 ± 0.11
AUCCAGCAAUAUUACGAACU	-1.98 ± 0.15	-0.753 ± 0.18
AUCCAGCAAUAUUACGACAU	0.00336 ± 0.011	0.408 ± 0.032
AUCCAGCAAUAUUACGAGAC	-2.51 ± 0.091	-2.01 ± 0.11
AUCCAGCAAUAUUACGAUCG	-2.6 ± 0.2	-3.02 ± 0.37
AUCCAGCAAUAUUACGCACU	-0.149 ± 0.11	0.144 ± 0.11
AUCCAGCAAUAUUACGCAGA	-1.38 ± 0.11	-0.448 ± 0.099
AUCCAGCAAUAUUACGCCAC	-2.03 ± 0.18	-2.5 ± 0.2
AUCCAGCAAUAUUACGCCGA	-1.37 ± 0.1	-0.75 ± 0.14

Reference: the supplement of paper PMC7877785
